The data set deals with the molecule itself. Kind of data set: FTIR + circular dichroism + transmission electron microscopy; peptide alone; gelation by pH switch, 20 mg/mL stock; self-assembly under physiological conditions (pH 7.4) into nanofibrils and a hydrogel. (Circular dichroism is widely used to follow secondary structure.)

Ends that are not written are not given here. * marks the point of attachment. Fmoc = O=C(OCC1c2ccccc2-c2ccccc21)*

B1: Fmoc-DDIKVAV self-assembling peptide (peptide)
peptide: Fmoc-DDIKVAV
notes: Whole peptide as printed: DDIKVAV with N-terminal Fmoc; Assembles into nanofibres and a hydrogel; also called SAP; IKVAV SAP; source: solid phase peptide synthesis
On to B1, for which the binding result is listed as “binds”.

Values taken from publication PMC9101815, “Extracellular Matrix Biomimetic Hydrogels, Encapsulated with Stromal Cell-Derived Factor 1, Improve the Composition of Foetal Tissue Grafts in a Rodent Model of Parkinson’s Disease” (International Journal of Molecular Sciences, 2022).
